Legend:
[1] = molecular target: IL-1β in PC12 cell cultures; test: cell-based or functional assay
[2] = molecular target: IL-1 receptor on PC12 cells; test: cell-based or functional assay
[3] = molecular target: Recombinant human pro-IL-1β, P01584
Sequence of Recombinant human pro-IL-1β, P01584 (P01584 whole entry, looked up): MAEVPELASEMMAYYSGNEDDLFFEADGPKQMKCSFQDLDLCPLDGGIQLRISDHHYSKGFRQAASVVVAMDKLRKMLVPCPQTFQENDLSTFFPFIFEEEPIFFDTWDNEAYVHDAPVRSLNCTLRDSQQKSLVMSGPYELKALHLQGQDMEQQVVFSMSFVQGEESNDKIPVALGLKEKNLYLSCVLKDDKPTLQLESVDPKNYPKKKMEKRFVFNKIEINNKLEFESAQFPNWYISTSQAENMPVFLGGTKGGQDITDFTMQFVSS

Blocking monoclonal hamster anti-mouse IL-1β antibody (Genzyme)
suppression of death of V-ASOD1 treated (SOD1 deficient) PC12 cells; antibody concentration used [1]: 30 µg/mL

IL-1 receptor antagonist (rmIL-1Ra) (from UniProt P25085 27-178) (ligand)
suppression of death of V-ASOD1 treated (SOD1 deficient) PC12 cells; antagonist concentration used [2]: 100 ng/mL

B1: Recombinant human ICE (interleukin 1β converting enzyme) (protein)
chain: NPAMPTSSGSEGNVKLCSLEEAQRIWKQKSAEIYPIMDKSSRTRLALIICNEEFDSIPRRTGAEVDITGMTMLLQNLGYSVDVKKNLTASDMTTELEAFAHRPEHKTSDSTFLVFMSHGIREGICGKKHSEQVPDILQLNAIFNMLNTKNCPSLKDKPKVIIIQACRGDSPGVVWFKDSVGVSGNLSLPTTEEFEDDAIKKAHIEKDFIAFCSSTPDNVSWRHPTMGSVFIGRLIEHMQEYACSCDVEEIFRKVRFSFEQPDGRAQMPTTERVTLTRCFYLFPGH
cleavage of pro-IL-1β by ICE in vitro (SDS-PAGE and immunoblot) [3]: There is some cleavage in the presence of the inhibitor but much less than seen with ICE alone

Reference: patent US6635738
